{"source": "the DeepSol protein solubility set", "data": [{"test": "soluble on expression in E. coli; label from the status in PepcDB or PDB records", "values": [{"sequence": "MGSSHHHHHHSSGLEVLFQGPAMATKKVHIISHSHWDREWYMAYEQHHMRLINLIDDLLEVFQTDPDFHSFHLDGQTIILDDYLKVRPEREPEIRQAIASGKLRIGPFYILQDDFLTSSESNVRNMLIGKEDCDRWGASVPLGYFPDTFGNMGQTPQLMLKAGLQAAAFGRGIRPTGFNNQVDTSEKYSSQFSEISWQGPDNSRILGLLFANWYSNGNEIPTTEAEARLFWDKKLADAERFASTKHLLMMNGCDHQPVQLDVTKAIALANQLYPDYEFVHSCFEDYLADLADDLPENLSTVQGEITSQETDGWYTLANTASARIYLKQANTRVSRQLENITEPLAAMAYEVTSTYPHDQLRYAWKTLMQNHPHDSICGCSVDSVHREMMTRFEKAYEVGHYLAKEAAKQIADAIDTRDFPMDSQPFVLFNTSGHSKTSVAELSLTWKKYHFGQRFPKEVYQEAQEYLARLSQSFQIIDTSGQVRPEAEILGTSIAFDYDLPKRSFREPYFAIKVRLRLPITLPAMSWKTLALKLGNETTPSETVSLYDDSNQCLENGFLKVMIQTDGRLTITDKQSGLIYQDLLRFEDCGDIGNEYISRQPNHDQPFYADQGTIKLNIISNTAQVAELEIQQTFAIPISADKLLQAEMEAVIDITERQARRSQEKAELTLTTLIRMEKNNPRLQFTTRFDNQMTNHRLRVLFPTHLKTDHHLADSIFETVKRPNHPDATFWKNPSNPQHQECFVSLFDGENGVTIGNYGLNEYEILPDTNTIAITLLRSVGEMGDWGYFPTPEAQCLGKHSLSYSFESITKQTQFASYWRAQEGQVPVITTQTNQHEGTLAAEYSYLTGTNDQVALTAFKRRLADNALITRSYNLSNDKTCDFSLSLPNYNAKVTNLLEKDSKQSTPSQLGKAEILTLAWKKQ", "soluble on expression in E. coli": "soluble"}, {"sequence": "MTFSCEPAELRSRAKAAFIGLAVGDALGAPVEFMTTGEIKAKHGVLREIVGGGWLRLKPGQVTDDTDMSLCVARGVAKAGEWNLTAIAEEFAAWLRSKPVDVGDTCRRGIRNYMLKGLLETPFNQWDAGNGAAMRMLPTALFTMGDDNLLCRCAVEQGHLTHNHPLSDAACITLGRLVHLSVLGFSKPRLRREADRLTESHPTFSFEPYRGLATGYVVDTMQTVLHFFFRGRDFEECLVSTVNQGGDADTTGAIIGMVAGAYYGMEEIPRRWLKKMDRQVLDEIDTLSDLLISLSPALRSGNGILLPPA", "soluble on expression in E. coli": "not soluble"}, {"sequence": "EGRATHLQGLVVDITERKEAQKMLEIQRELGAKLNTTWNLHAILNMVLDACLQINGIDAGGVYIRDELLDQINLVQSRGISPEFKEKVSRFKADSNEAKQVWAEKPIYSMDFYSDKMAEAARKEGIKAVAVIPLKYSNEIIGSLNFASH", "soluble on expression in E. coli": "not soluble"}, {"sequence": "MSLNNYPFASMRDCFDMSAYFVVGPQDCKGRPVTDVVDDALRGGATFIQLRAKNADAKDITEMARDIAQVIKNSGKSDSVAFVIDDRVDVVWQARDKGIKVDGVHIGQTDMEPQEARALLGEDAIVGLSAETESLVKLINELPSGCIDYIGAGPLHVSTTKPEASVGGNDGSGHTLDEEQINAICAASEFPVVVGGGVHADDMEMLARSKAAGWFVVSAIAGADDPEAATREMVTRWKAVRGDAEGHHHHHH", "soluble on expression in E. coli": "soluble"}, {"sequence": "MGSDKIHHHHHHMKILICDDDSSITQSLSLIIKTYFNKKKVNNLDIVTFNDGDSLLSDKSQKDIIFLDIEMPGFDGIYVGNELKKQNDSVIIFIVTSYLEYLDAAMRFHVFRYLSKPIDKQRLFQNLDDALELYYSINQKIAVETKYGVTSVLTCDIVYVEAKGRKVIVHTATADLDSTQTLQFWIEHLPQATFFQSHRSYIVNMAMVTSFDHELIYLCDGQFTAYLTRRKFTEFKRAYLMFMESKR", "soluble on expression in E. coli": "not soluble"}, {"sequence": "FFSGLFQRKSDAPVTTPAELADAIGLSYDTYTGKQISSQRAMRLTAVFSCVRVLAESVGMLPCNLYHLNGSLKQRATGERLHKLISTHPNGYMTPQEFWELVVTCLCLRGNFYAYKVKAFGEVAELLPVDPGCVVYALGRCQRWPEGDRRECYSAR", "soluble on expression in E. coli": "soluble"}, {"sequence": "TPARDWNYTAPDGTVVEGWYYLPPQFDPSKKYPMLVYYYGGTSPINRTLEGHYSLAMYAAQGYVVYTLNPSGTTGYGQEYAARHVNAWGDRTADEIIGATKEFIRTHSFVNGKKVGCFGASYGGFMTQYLQTKTDIFAAAVSHAGISSISNYWGSGYWGMGYSTVASTDSYPWNNPDLYAGHSPLFRADKIHTPLLLLHGSVDTNVPTAESVNLYNALKILGREVEFIEFTEQDHFILEPERRIRWTNSICAWFARWL", "soluble on expression in E. coli": "not soluble"}, {"sequence": "MEEVGGNGGPARIAECGKIGSGTINSNVVPSVNLPSPSVKPSVTPSVKKPPHVIRSDYSKPREKPAKVAKKPTVKNDKKPKPVAIVAPTGIIKTFKTTPNPNRNL", "soluble on expression in E. coli": "soluble"}, {"sequence": "MSSSTTDDDSCSYFFFRQACLIPTPSVPTHPSVSIKIYPPFAEFIDFGGASRHILTNNGTCRIVFKVKCSNNLVFKVSPVYAFLDPGATAELQVLRREGPPKHDKLIISLKEAKKGDKDPRVTFNDSTHTTHKHILPLLTRIVEEQ", "soluble on expression in E. coli": "not soluble"}, {"sequence": "MSLGAYLSSPKTNKESLDGGNLELDPSRYGLSCMQGWRKNMEDAHICYNNLKFNEIEEDVSIYGVFDGHGGPNVSKWISYNFRRIFIRCLKEANAGETGEDDCNGVYSSEELRLFENYYSNDYEDNIAYSCGSTALVAVILKGYLIVANAGDSRAIVCFNGNSLGMSTDHKPHLQTEEARIKKAGGYIANGRVDGNLNLTRAIGDLHYKRDPFLPQKDQKISAFPEITCVTLTPEDEFLFLACDGIWDCKDGQDVVGFVKTRLEKFEEIPDDPNNSLDNTENSEHMNTNNNSDQNEKLKSEEGHHHHHH", "soluble on expression in E. coli": "soluble"}, {"sequence": "MDKKSKLINLLKEVGCIRFGEFILASGKKSNYYIDIKKATTNPEILKLVGEIIAEQIKDEDVKVAGVELGSVPIATAVSIIAQKPLLIVRKKPKDYGTKNKIEGELKEGDKVVIVEDVTTTGGSVLKAVKEIRENGGIVDKVFVVVDRLEGAKENLQKENVELIPLVTVKELQSTQ", "soluble on expression in E. coli": "soluble"}, {"sequence": "MGSDKIHHHHHHMPKSKSQKNKLRPRDSKGRFTPLAKAKRTVVSRSRSRSRSASRGARQSRSVGRPMSRRNSVRSISTHTAKSPSLVLVISGSPSPRRRRPSTRRSSSRRSVVRSVSRGSKSRRSSSRGSVYGRTGRSRSSKRSRSRSRPRTRSGSRSSSRSRSGSRRSSRRRSRRRSSSKARGRRASTAKKTPAKRRSRSRSQQKVKRSMSRKG", "soluble on expression in E. coli": "not soluble"}, {"sequence": "MAEVITLSDDDDDVIPLTPRPPVVLKTSTTANHGNNSQATVHVSTGKNLNFDQIGIRRLSDVYNKNQPAFRGNEIPTGIRNSRPSLPATAILQNPQFLVQLAAKGLKRPFSSVHSTPAVVPSTSIQRTRNNQNAGNTPNIYKGHYMFEATESYEPSRRSSRYNTKKIEGKFMCSYNPTKCYKLCGSVVEVINHIWAHVIHDPPLPPIEKKESKDDGMFSCLLRNSDAAQLAENSALSLKRLQTCQFCNAVFRTVHLKTIHVVKCHMEQDHLDTTCNICELDFGNSIALNTHMKKHISGEAPYNCQKCKYRTSVRAFFYQHFIEKHSNETLLCPICLHHEDLRPNVRRSKHIFVREFVNHMRSHALGPQMRCHVCALTFTSRLLLEAHRTNDHTMLNSLWQVIERKSVHETEREHMSKRNKIGLLQRRFFETLEGRRINDEVACAGDKEREGFDLTTTGDTLFECECGFKSWNGNRTASHYHKCRRSINDIERKREIVRLGSDPKEELELFAVYPQPTNTEAETEEATLRKIHLERGDPLPILEDIVYQPIDDLPLLKMLSKNHDKSLEIMEKCTASAVTTED", "soluble on expression in E. coli": "not soluble"}, {"sequence": "EGQEKFKDLTYIAASVCNTEHAFITLLNKDNLVFLSSFKPPLAEITRDLSFCEITIQSDTVHEVQDARVHERFSNNPYVIGEPYLRYYCGAPLIDENGYKLGALCVLDTNPRTLTENQKKSLVLLAKQV", "soluble on expression in E. coli": "not soluble"}, {"sequence": "SLRRAAKAEAQAWLLTERLAQAEERHRLLEDQSATQIELIKAQAAQSANAIAEQLIKRADENAKSRERLAEARLEAQLKPVAETLAKFEAQVTAVEKARAEETGGLKAQITALLEASTATQAEARKLSAALRRGAGVQGRWGEQTLRNVLEAAGLNSRFDFQEQFSVDSEEGRRRPDVKVTLPGGGVFVIDAKCSLNAFLEAQDATDEVLREAAMARHAQSVRTHMQGLSSKAYWDQFAGEGSPDFVAMFVPGDGFLAAALDRLPELMAEAMDRRVVLVTPTTLFALCKAVAYGWRAEDQAKNAARIVEVGRELYKRVSVMGAHAGAMGKALESAVGKYNQFVGSLESQVLTQARRFEDLSVDHEGKEIPEPPMVDQAVRPLTKLKAVGQSPTLTLGNDTPT", "soluble on expression in E. coli": "soluble"}, {"sequence": "MGHHHHHHSHMCSALVVAAPHSGSGKTTVTAAIARYHRVQGRKVTVFKVGPDFIDPMILRQASGELVYQLDLWLVGEQGCRALLHRAAMDSDLILIEGVMGLFDGTPSSADLAKYFNIPVLGVIDAKAMAQTFAAVTFGLAKFCEDLPFSGVIANRVNTERHAELLSVSLPKAFRFYGRIPKDDTITLPERHLGLVQAQELSDIDVQLDKAASHIANTG", "soluble on expression in E. coli": "not soluble"}, {"sequence": "MLIQKAYKYRLYPTDQQAQRLRQLCGCARFVWNYALNETLSIHDAGGKIPSAFDLNKRLTGWKKLPELAFLSEGYTDNLQQKLKDLRSAWDRCFDKSLTAEKPVFKKKTKGCDSIRFVNFSKYCGLDYGRVKLPSGLGWVKFRQSRKIEGVIKNCTISQHAGHWYVSFQVELAVTDPIHASTSAIGLDAGITKLATLSDGTVFEPVNSLKKNQDKLARLQRRLARMVKFSANWKKQKAKISRFHSHIANIRRDYLHKTTTTISKNHAMIVIEDLKVSNMSKSAAGTVDQPGRNVAAKSGLNRAILDQGWAEMRRQLEYKQAWRGGDVLAINPAYTSQKCACCGHTSKNNRRTQASFICTACGYTANADVNGARNILTAGFEVMAAGQILPSVRKGRARKAA", "soluble on expression in E. coli": "not soluble"}, {"sequence": "MGSDKIHHHHHHAQKKTQKTYIPWSNGKLVVSEEGRYLKHENGTPFFWLGETGWLLPERLNRDEAEYYLEQCKRRGYNVIQVQTLNNVPSMNIYGQYSMTDGYNFKNINQKGVYGYWDHMDYIIRTAAKKGLYIGMVCIWGSPVSHGEMNVDQAKAYGKFLAERYKDEPNIIWFIGGDIRGDVKTAEWEALATSIKAIDKNHLMTFHPRGRTTSATWFNNAPWLDFNMFQSGHRRYGQRFGDGDYPIEENTEEDNWRFVERSMAMKPMKPVIDGEPIYEEIPHGLHDENELLWKDYDVRRYAYWSVFAGSFGHTYGHNSIMQFIKPGVGGAYGAKKPWYDALNDPGYNQMKYLKNLMLTFPFFERVPDQSVIAGQNGERYDRAIATRGNDYLMVYNYTGRPMEVDFSKISGAKKNAWWYTTKDGKLEYIGEFDNGVHKFQHDSGYSSGNDHVLIVVDSSKDYVKKDCYQIDTHE", "soluble on expression in E. coli": "not soluble"}, {"sequence": "MMNEKNPPLVSILIPTYNRPHYFKIALESALAQTYSNIEIIIGDDSTNDETATLIREQYLPNYKNITYIRNTPTLGQFHNDLMLIEKSNGEYINFLMDDDVFYKHKIQKMMTYFEQDPNKNLALVTSYRVRIDDHGNLIGDSHPTQRLYSEDTPLNGIFLGNWMLKGGHNIIGEPTTTLFRKELLTEPFGTLKERQYSCSVDMASWISLLSKGNAIYISEPLSQFRYHAGQQIHNKLLQGCEDFTHLVITAKEYGFLQNTTDYRAALLSAYQWCKSSLKYYLHQLDIFPDAHVRLSHCLDIIIKELNNLEHHHHHH", "soluble on expression in E. coli": "soluble"}]}]}
